Experimental data reported in the supplement of paper PMC10567573.

B1: NECAB1 (parent)
chain: FSPNSPQFNVSGPGLLEEDNQWMT
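Note: lentivirally expressed fusions sorted by FACS into six bins by GFP to DsRed ratio, PSI derived from sequencing read proportions per bin multiplied by bin number.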

Variants of: B1
Test: protein stability index of a GFP-peptide fusion (GPS, HEK-293T) (PSI 1-6); higher = more stable
Details: c terminus: a fixed tail appended
FSPNSPQFEVSGPGLLEEDNQWMT [N9E] gave a protein stability index of 3.77. Work on FSPNSPQFMVSGPGLLEEDNQWMT [N9M] yielded a protein stability index of 2.42. For FSPNSPQFSVSGPGLLEEDNQWMT [N9S], the protein stability index was 2.84. With FSPNSPQFLVSGPGLLEEDNQWMT [N9L] the protein stability index was 2.12. FSPNSPQFQVSGPGLLEEDNQWMT [N9Q] gave a protein stability index of 2.67. In the case of FSPNSPQFNPSGPGLLEEDNQWMT [V10P], the protein stability index is reported as 3.16. With FSPNSPQFNGSGPGLLEEDNQWMT [V10G] the protein stability index was 2.92. FSPNSPQFNDSGPGLLEEDNQWMT [V10D] gave a protein stability index of 4.09. Work on FSPNSPQFNMSGPGLLEEDNQWMT [V10M] yielded a protein stability index of 3.33. In the case of FSPNSPQFNASGPGLLEEDNQWMT [V10A], the protein stability index is reported as 3.5. FSPNSPQFNFSGPGLLEEDNQWMT [V10F] gave a protein stability index of 2.28. Variant FSPNSPQVNVSGPGLLEEDNQWMT [F8V] has a protein stability index of 3.61. With FSPNSPQLNVSGPGLLEEDNQWMT [F8L] the protein stability index was 3.04. Work on FSPNSPQKNVSGPGLLEEDNQWMT [F8K] yielded a protein stability index of 3.78. For FSPNSPQDNVSGPGLLEEDNQWMT [F8D], the protein stability index was 4.15. Variant FSPNSPQYNVSGPGLLEEDNQWMT [F8Y] has a protein stability index of 3.43. In the case of FSPNSPQSNVSGPGLLEEDNQWMT [F8S], the protein stability index is reported as 4. In the case of FSPNSPQPNVSGPGLLEEDNQWMT [F8P], the protein stability index is reported as 3.47. For FSPNSPQENVSGPGLLEEDNQWMT [F8E], the protein stability index was 4.44. With FSPNSPQFNVSGPGLLTEDNQWMT [E17T] the protein stability index was 2.36. For FSPNSPQFNVSGPGLLYEDNQWMT [E17Y], the protein stability index was 2.46. In the case of FSPNSPQFNVSGPGLLNEDNQWMT [E17N], the protein stability index is reported as 2.33. Variant FSPNSPQFNVSGPGLLPEDNQWMT [E17P] has a protein stability index of 2.58. FSPNSPQFNVSGPGLLEEDNQLMT [W22L] gave a protein stability index of 3.71. In the case of FSPNSPQFNVSGPGLLEEDNQCMT [W22C], the protein stability index is reported as 4.1. For FSPNSPQFNVSGPGLLEEDNQYMT [W22Y], the protein stability index was 3.49. Variant FSPNSPQFNVSGPGLLEEDNQRMT [W22R] has a protein stability index of 3.93. With FSPNSPQFNVSGPGLLEEDNQMMT [W22M] the protein stability index was 3.39. Work on FSPNSPQFNVSGPGLLEEDNQTMT [W22T] yielded a protein stability index of 3.83. With FSPNSPQFNVSGPGLLEEDNQHMT [W22H] the protein stability index was 3.84. Work on FSPNSPQFNVSGPGLLEEDNQEMT [W22E] yielded a protein stability index of 4.42. Work on FSPNSPQFNVSGPGLLEEDNQSMT [W22S] yielded a protein stability index of 4.03. In the case of FSPNSIQFNVSGPGLLEEDNQWMT [P6I], the protein stability index is reported as 2.34. FSPNSMQFNVSGPGLLEEDNQWMT [P6M] showed a protein stability index of 2.03. FSPNSDQFNVSGPGLLEEDNQWMT [P6D] showed a protein stability index of 2.82. FSPNSFQFNVSGPGLLEEDNQWMT [P6F] gave a protein stability index of 2.28. In the case of FSPNSSQFNVSGPGLLEEDNQWMT [P6S], the protein stability index is reported as 2.62. In the case of FSPNSQQFNVSGPGLLEEDNQWMT [P6Q], the protein stability index is reported as 2.48. FSPNSTQFNVSGPGLLEEDNQWMT [P6T] showed a protein stability index of 2.86. In the case of FSPNSKQFNVSGPGLLEEDNQWMT [P6K], the protein stability index is reported as 2.5. FSPNSEQFNVSGPGLLEEDNQWMT [P6E] showed a protein stability index of 3.88. For FVPNSPQFNVSGPGLLEEDNQWMT [S2V], the protein stability index was 2.66. FHPNSPQFNVSGPGLLEEDNQWMT [S2H] showed a protein stability index of 2.17. Work on FAPNSPQFNVSGPGLLEEDNQWMT [S2A] yielded a protein stability index of 1.79. In the case of FYPNSPQFNVSGPGLLEEDNQWMT [S2Y], the protein stability index is reported as 3.49. With FGPNSPQFNVSGPGLLEEDNQWMT [S2G] the protein stability index was 2.08. In the case of FDPNSPQFNVSGPGLLEEDNQWMT [S2D], the protein stability index is reported as 4.21. For FCPNSPQFNVSGPGLLEEDNQWMT [S2C], the protein stability index was 2.63. Work on FMPNSPQFNVSGPGLLEEDNQWMT [S2M] yielded a protein stability index of 3.39. FSPNSPQFNVSGPRLLEEDNQWMT [G14R] gave a protein stability index of 2.63. Work on FSPNSPQFNVSGPSLLEEDNQWMT [G14S] yielded a protein stability index of 3.04. FSPNSPQFNVSGPQLLEEDNQWMT [G14Q] gave a protein stability index of 2.74. In the case of FSPNSPQFNVSGPFLLEEDNQWMT [G14F], the protein stability index is reported as 2.35. Work on FSPNSPQFNVSGPKLLEEDNQWMT [G14K] yielded a protein stability index of 2.3. FSPNSPQFNVSGPWLLEEDNQWMT [G14W] showed a protein stability index of 1.96. Variant FSPNSPQFNVSGPGLLEEDNQWMA [T24A] has a protein stability index of 2.82. FSPNSPQFNVSGPGLLEEDNQWML [T24L] gave a protein stability index of 3. For FSPNSPQFNVSGPGLLEEDNQWMM [T24M], the protein stability index was 2.4. For FSPNSPQFNVSGPGLLEEDNQWMP [T24P], the protein stability index was 2.69. For FSPNSPQFNVSGPGLLEEDNQWMR [T24R], the protein stability index was 2.97. Variant FSPNSPQFNVSGPGLLEEDNQWME [T24E] has a protein stability index of 3.92. With FSPNSPQFNVSGPGLLEEDNQWMC [T24C] the protein stability index was 2.91. FSPNSPQFNVCGPGLLEEDNQWMT [S11C] showed a protein stability index of 2.54. With FSPNSPQFNVWGPGLLEEDNQWMT [S11W] the protein stability index was 3.29. FSPNSPQFNVTGPGLLEEDNQWMT [S11T] showed a protein stability index of 2.79. With FSPNSPQFNVPGPGLLEEDNQWMT [S11P] the protein stability index was 3.19. With FSPNSPQFNVNGPGLLEEDNQWMT [S11N] the protein stability index was 3.31. In the case of FSPNSPQFNVSGPGLLEEDNQWIT [M23I], the protein stability index is reported as 2.45. Variant FSPNSPQFNVSGPGLLEEDNQWYT [M23Y] has a protein stability index of 2.77. FSPNSPQFNVSGPGLLEEDNQWWT [M23W] gave a protein stability index of 2.35. With FSPNSPQFNVSGPGLLEEDNQWAT [M23A] the protein stability index was 3.66. Work on FSPNSPQFNVSGPGLLEEDNQWTT [M23T] yielded a protein stability index of 3. With FSPNSPQFNVSGPGLLEEDNQWNT [M23N] the protein stability index was 3.45. Variant FSPNSPQFNVSGPGLLEEDNQWST [M23S] has a protein stability index of 3.5. Variant FSPNSPQFNVSGPGLLEEDNQWHT [M23H] has a protein stability index of 2.8. FSPNSPQFNVSGPGLLEEDNQWGT [M23G] showed a protein stability index of 3.66. For FSPNSPQFNVSGPGLVEEDNQWMT [L16V], the protein stability index was 3.18. With FSPNSPQFNVSGPGLIEEDNQWMT [L16I] the protein stability index was 2.91. Work on FSPNSPQFNVSGPGLQEEDNQWMT [L16Q] yielded a protein stability index of 3.54. FSPNSPQFNVSGPGLSEEDNQWMT [L16S] gave a protein stability index of 3.23. With SSPNSPQFNVSGPGLLEEDNQWMT [F1S] the protein stability index was 4.75. Work on VSPNSPQFNVSGPGLLEEDNQWMT [F1V] yielded a protein stability index of 4.34. Work on ASPNSPQFNVSGPGLLEEDNQWMT [F1A] yielded a protein stability index of 4.01. ESPNSPQFNVSGPGLLEEDNQWMT [F1E] gave a protein stability index of 4.79. ISPNSPQFNVSGPGLLEEDNQWMT [F1I] gave a protein stability index of 4.33. Variant YSPNSPQFNVSGPGLLEEDNQWMT [F1Y] has a protein stability index of 3.25. Work on CSPNSPQFNVSGPGLLEEDNQWMT [F1C] yielded a protein stability index of 3.13. For FSPNSPSFNVSGPGLLEEDNQWMT [Q7S], the protein stability index was 2.66. In the case of FSPNSPHFNVSGPGLLEEDNQWMT [Q7H], the protein stability index is reported as 2.94. Work on FSPNSPWFNVSGPGLLEEDNQWMT [Q7W] yielded a protein stability index of 2.64. Work on FSPNSPCFNVSGPGLLEEDNQWMT [Q7C] yielded a protein stability index of 2. In the case of FSPNSPRFNVSGPGLLEEDNQWMT [Q7R], the protein stability index is reported as 2.07. Work on FSPNSPKFNVSGPGLLEEDNQWMT [Q7K] yielded a protein stability index of 2.27. For FSPNSPDFNVSGPGLLEEDNQWMT [Q7D], the protein stability index was 4.25.
